Molecular target: interleukin 1 receptor 1 (Il1r1), murine (mouse) (UniProt P13504)
Assay: cell-based or functional assay

Sequence of UniProt P13504 (P13504 20-576): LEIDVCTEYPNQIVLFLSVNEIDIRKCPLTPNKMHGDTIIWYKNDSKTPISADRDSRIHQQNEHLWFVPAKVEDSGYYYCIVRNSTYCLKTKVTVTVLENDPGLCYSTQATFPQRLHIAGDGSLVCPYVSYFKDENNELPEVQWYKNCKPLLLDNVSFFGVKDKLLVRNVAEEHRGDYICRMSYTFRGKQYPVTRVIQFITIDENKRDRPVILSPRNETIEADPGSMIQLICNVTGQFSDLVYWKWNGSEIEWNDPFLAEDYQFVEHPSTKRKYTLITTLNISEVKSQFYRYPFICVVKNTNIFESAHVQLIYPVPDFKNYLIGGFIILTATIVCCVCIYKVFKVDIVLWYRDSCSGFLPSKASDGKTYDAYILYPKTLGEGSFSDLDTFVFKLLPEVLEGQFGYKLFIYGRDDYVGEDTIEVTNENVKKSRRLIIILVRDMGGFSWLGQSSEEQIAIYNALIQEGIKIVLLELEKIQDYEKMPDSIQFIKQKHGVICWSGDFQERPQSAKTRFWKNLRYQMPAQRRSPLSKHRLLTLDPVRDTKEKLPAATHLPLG

- NF-κB transcriptional activity (luciferase reporter), fold induction after IL-1α stimulation of Il1r1+/- cells: 4.8 fold
- NF-κB transcriptional activity (luciferase reporter), fold induction after IL-1α stimulation of wild-type (Il1r1+/+) cells: 6.3 fold
Substance: IL-1α (ligand)

From patent publication US20180201951A1
